Assay results reported in the DeepSol protein solubility set.

Experiment: soluble on expression in E. coli; label from the status in PepcDB or PDB records

Sequence	soluble on expression in E. coli
MGSDKIHHHHHHMDNDSTPRGTVCVTGATGYVGGRLVPRLLDHGWRVRALVRTPAKLLCRPWARHPRLDIIRGDLDDACSLVPALEGCDAVFYLVHSMNPHVTGRDTFAKADRAAASNMVRACDEARPGRIIYLSGLVPEGEELSPHLRSRAEVADILARGETPLTVLRAAQILGSGSASFEMVRYLVDRLPVMLTPRWVHSLCQPIAISNVLGYLEGCLDHPETMGQTYDIGGPDILSYRELFDIFAEVAQLRRRTIIPVPVLSPELSAHWINLVTPIPKALATPLIQGLRNRVVCADDRIRDIIPQRLLSCREAIGKALDRVREQSVPTCWTDAGRPDMPEWMTCGDASYAGGDLLECAYAIQVEAPPETVWKPVSAIGGETGWYHGDLLWRLRGMLDKLVGGPGLRRGRRHPTDIGVGDALDFWRVLDVRPGERLLLLAEMKVPGDALLEFRLAPTATGGTELWMLSWFLPRGLAGLAYWWALYPLHKGLFKGMLCGLAAATGAPVSREPWALPPRREFACALPLTDASAPGRRDTTAQ	not soluble
MSLTTAHNIDLPTVLAERLTTAHPDVLRELLATFIHTLMGAEADALCGAGYGERSTERTNSRNGYRHRQFDTRAGSLDLAIPKLRHGSYFPDWLLERRKRAERALTTVVATCYLLGVSTRRMDKLVETLGITSLSKSQVSVMAKELDAAVEAFRTRPLDAGPYTFVAADALVLKVREGGRVVNVHALIAVGVNAEGHREILGIDVSTAEDGAGWLTFWRSLTARGLSGVKLVTSDAHAGLVAAIGATLPGAAWQRCRTHYTTNLMAVTPKSSWPWVRTLLHSVFDQPDAESVAAQYDRIIEALADKLPKVADHLEEARADLLAFTAFPKQIWRQIWSNNPLSVNRPSGDTVQAAAEGHHHHHH	soluble
MKKKDTCEIFGYDEEKVNRIQGDLQTVDISGVSQILKAIADENRAKITYALCQDEELCVCDIANILGVTIANASHHLRTLYKQGVVNFRKEGKLALYSLGGEAIRQIMMIALAHKKEVKVNV	soluble
MGSDKIHHHHHHMDDITPSDIQAQAIAAIRDWFHSRTDEQQVFRLFGFAGTGKSTVLKFALDDLGLSPHAEDRPGVVTATFTGKAALVLRRKGTPARTIHSLIYSVIEATDEEIEEAGKRITQAELNARGLIGFDRTAAEAAIEAMRQTLRDMKKPRFALNPDSPAASAKLIVLDEVSMVGDEMARDLMSFERPILVLGDPGQLPPIKGEGAFTQAAPDIMLTEIHRQAAESAIIRLATMAREGQPIGFGQYDDHAWKMRMADVTPQQALRGGQVICGRNTTRFQLNNALRRAAGFGGSYLPTGADEKVICLKNQNDLGLINGMFLTLADIVDEGSVYFSATVTDEVGTPIGPPAKDGKPGRLMLYKGHFEDHVALDPHRHDRDWRDKKKLTEATFGWAITCHKAQGSQWENVIVWDDGLGRTEQDRRRWLYTAITRAERGLVILA	not soluble
MGSDKIHHHHHHMSDFSPIAWTEGMFLRPQHMQQQERFLQHQQARTAKNNNPLAWGVVSYEVNYGLLPLGQFGLDRIDCVFPDNTLACLPEQSPLPTAITVPAGTLDQLVYLVLPVAKSNGMNISSSEQNQITRYSYEDHNIVDTSVGSDAMEVLQVAKLDCRLKLQSEDRSGYVSIAIARVIDVSEEGVIRLDKKFIPACIGIEHIKTLMNMTTEVTGMINQRAEAIAGRLSQSQGTSSSIADFLMLQLLNKYQPIFEHYGVVNHIHPELLFRTLISFSGELSTFSSPNKRPPKFPVYQHDNLTYVFSNTMVIVNHGLSSVLEQSATELILEKTKFGVYFSTIADKSMLDNAEFILAVKANVPHDELRQRLPSQIKIGSVETIRELVNNQLPGIGISNLPVAPRQVPYHAGYHYFQLDKNNSHWIKLKSSGGVAMHISGAYPELQIELWAVSI	not soluble
MAHHHHHHMYGGNFSIPEFILKHEKYEKERLKIKRNKYLKRNIYKDNYSFIYFIFLHNINEHVEITTNNFDLLKGQLEELKKNTNNHIKGIILKNVIKSNNNNYSYFSKLYIPITNIYTCMPDNICSREKNKNPESKPFCDLIVSGYKNQMMNKIYEKFKKLGNQYV	not soluble
MKKYILTLILALASLGLYAQTNRNKTIINAALHGWEYEIKAGVNLGGTAPLPFPEEIRSIDGYNPTLSITIEGNMTKWLDTKKKWGIITGLRLENKGMRTKATVKNYNMEIIGYDGNRLKGNWTGGVRTKVQNSYITIPVLAAYKLSPRTTLKLGPYFSYLMDGDFSGHVYEGYLRETNPTGDKINFTNGAIATYDFSGDLRKFQWGVQAGVDWKAFKHLKVHADLNWGLNDIFNKDFKTVTFDMYAIYLNVGFGYAF	not soluble
MGHHHHHHSHMVGWQEGANHKNGAGRSQKQEMAEKMVPEVASGEEIGGRSEAGRESPDLFRPNTVEARDRPAGPPFSKSASVRVLQRSRTNRDYIPIEHIQSPIGIYNML	not soluble
MYTIQANPSGTRSIEVSSENLKTIEKYALFRHLIDSTGIVDEPVLDKLKLNIRSLIASQEEDSKELLDLCIDVIYHNNMKAFGLQQLIKLYLTWLSTQDAEEEEE	soluble
MGSDKIHHHHHHMNYIKRSLERKFLHMSKFFKAVLVTGARQVGKTTMLKHLAEGQNRTYVTLDNLMARNLAKTDPVLFFQTYKPPVLIDEVQYAPELFSQIKILCDSSEEPGLIWLTGSQQFEMMKNVRETLAGRIGIMTLYSLSKNEKDGIEFENSLDFSPECLFARQRIAEKNDVLKVFEHIWRGGMPQVLHADAEQRQEYYNAYVNTYLMRDVAELGGITDSLRFAKFLTACAALTSEQVNYKNLSEAADISQPTAKEWLRLLEGLGIVYLLQPYANNAFKRLTKAPKLYFCDTGLCAHLSMWLTPETLMNGAASGHYFENHVVAEMLKSYAYSASKAVITYFRDSNAKEIDIIVEANNQLHPLEIKKSASPNSREINKYTILDKSSIKRGHGGILCLCEEVVPIDEQNCFIPCNLI	not soluble
MEPTGLMVAAPTASLPEAIGGERNWDYRFTWIRDTAYVIEALSSIGYKYEATEFLYDMMDMITRDNRIRTIYSIDDSNDLEERIIDYEGYRGSRPVRIGNKAVDQLQIDQYGSIVRAIHSMAKAGGIVNSYLWDFVEQVMAKIEYLWKYPDSSIWEFRTEPKQYVYSKVMSWAAFDSAISMAKDLGLSAPIKQWKSIQDEIKKEVLEKGFDTDTNSFVQYYGSKNIDAALLRLPILGFIPANDEKFLGTLSRIEKELMVDGYLFKRYREDDGLKGDEGSFLMLTFWYIEDLILMKRLKKAREVLESVLEKANHLGLYSEEIDEKSGDFLGNFPQALSHLGVIRVAPKLEEALLKRTSKINSLEHHHHHH	not soluble
MAHHHHHHMGLKRLAKAAKITSKHMLLLNRREPYKPVTSDRVMIENRRRLEDFEAKNAEGIVFVPDTALPPWQKSIATNLKQQATQMNFRGFRVRVADKQDEPGFPTHFR	soluble
NIEQGLYAMLGVYVSSKTIDVVQVGFNRSKMALIITKQEQAVKEAVLQKIDRGVTKISAVGGYTDDDRPILMCVVGQTEFTKLKQIVKQIDESAFVIVADASEVLGEGFKRA	not soluble
MMTDRTERRRRLTHAACTPSANNQRTTRLPPHPGFFSWSNPACDDGLFLYRTTVSRGVDTQRRRRSHPGFFSCRYHPSTVSLARRHRGPGKRISLRTEISKDADPISTVTETRWFLLNFQCIEPPLEHHHHHH	soluble
MKPLLDVLMILDAIEKEGSFAAASAKLYKTPSALSYTVHKLESDLNIQLLDRSGHRAKFTRTGKMLLEKGREVLHTVRELEKQAIKLHEGWENELVIGVDDTFPFSLLAPLIEAFYQHHSVTRLKFINGVLGGSWDALTQGRADIIVGAMHEPPSSSEFGFSRLGDLEQVFAVAPHHPLAQEEEPLNRRIIKRYRAIVVGDTAQAGASTASQLLDEQEAITVFDFKTKLELQISGLGCGYLPRYLAQRFLDSGALIEKKVVAQTLFEPVWIGWNEQTAGLASGWWRDEILANSAIAGVYAKSDDGKSAIQRKIIMTSLSFSCHFPPI	not soluble
DYKYVLKGHEDIRQDSLVMQLFGLVNTLLKNDSECFKRHLDIQQYPAIPLSPKSGLLGWVPNSDTFHVLIREHRDAKKIPLNIEHWVMLQMAPDYENLTLLQKIEVFTYALDNTKGQDLYKILWLKSRSSETWLERRTTYTRSLAVMSMTGYILGLGDRHPSNLMLDRITGKVIHIDFGDCFEAAILREKYPEKVPFRLTRMLTYAMEVSGIEGSFRITCENVMRVLRDNKESLMAILEAFALDPLIHWGFD	not soluble
MGSDKIHHHHHHMNINFENHGGNIEKEARQLGLSTENIIDASASIVPFKLPKKLNNYLINSIKNRSIRSYPDSSYFEVRNAISKWHNIEPSMILPGNGASELFTWAARDASLNGISSLPSPGFGDYQRALKCWNATYVHNPLPLSWTNNNPQSFPIEPKANVLWITNPHNPTGQLWSRSSIENLLANYKLVICDEAFISLVPGGESQSIIDLTNIYKNLIVIRSLTKFLGIAGLRVGYAVTNSDRLLKWKEIRDPWPVNTLAINATKMIMKDSKMHKKRLNKIHRWVEKEGKWLYQSLSSFSTIKPLPSTTNFQLIKSESSILNLLENLKKRGILLRDCRSFINLDEKWFRISLLKREQNIQIINTLKDYIN	not soluble
MGSDKIHHHHHHMQQGQMAYDRAITVFSPDGRLFQVEYAREAVKKGSTALGMKFANGVLLISDKKVRSRLIEQNSIEKIQLIDDYVAAVTSGLVADARVLVDFARISAQQEKVTYGSLVNIENLVKRVADQMQQYTQYGGVRPYGVSLIFAGIDQIGPRLFDCDPAGTINEYKATAIGSGKDAVVSFLEREYKENLPEKEAVTLGIKALKSSLEEGEELKAPEIASITVGNKYRIYDQEEVKKFL	not soluble
MKNVGFIGWRGMVGSVLMQRMVEERDFDAIRPVFFSTSQLGQAAPSFGGTTGTLQDAFDLEALKALDIIVTCQGGDYTNEIYPKLRESGWQGYWIDAASSLRMKDDAIIILDPVNQDVITDGLNNGIRTFVGGNCTVSLMLMSLGGLFANDLVDWVSVATYQAASGGGARHMRELLTQMGHLYGHVADELATPSSAILDIERKVTTLTRSGELPVDNFGVPLAGSLIPWIDKQLDNGQSREEWKGQAETNKILNTSSVIPVDGLCVRVGALRCHSQAFTIKLKKDVSIPTVEELLAAHNPWAKVVPNDREITMRELTPAAVTGTLTTPVGRLRKLNMGPEFLSAFTVGDQLLWGAAEPLRRMLRQLA	soluble
MKSKFFAQNRERLVNTLPDESITILFAGQAPHMSADAHYKFVPNRNFYYVTGIDEPNVIFMLKKFGNSVEETLFIEKSDPVMEKWVGKTVSNEEAEKISGIKKVIYLDSFEKTMSNIFFTENVKHLYLDLECREWKGTETKTLAFAKHVREQYPHVTIGNVYPNICELRVFKTDEEIEIIKEAIAVTKDGIYNVLKHAKADMMEYELEAQFDFTLKSSGIKHHAFNTILASGKNATVLHYEDNDAQIQNGDLVLLDLGAQKDYYNADISYTFPANGTFSSRQKQIYNIVLNALKETTEIIKPGLKFAALNEHAKKVLAEGCKAVGLIQEDEELSKYYYHGVSHFLGLDTHDVGTYKDRVLEEGMVITIEPGLYIEEESIGIRIEDDILVTKDGHENLSKDIIREVEEIEEFMRENNVNVKQDEVVTK	soluble
SGKVILITGASRGIGLQLVKTVIEEDDECIVYGVARTEAGLQSLQREYGADKFVYRVLDITDRSRMEALVEEIRQKHGKLDGIVANAGMLEPVKSISQSNSEHDIKQWERLFDVNFFSIVSLVALCLPLLKSSPFVGNIVFVSSGASVKPYNGWSAYGCSKAALNHFAMDIASEEPSDKVRAVCIAPGVVDTQMQKDIRETLGPQGMTPKALERFTQLYKTSSLLDPKVPAAVLAQLVLKGIPDSLNGQYLRYNDERLGPVQG	soluble
